Literature values, collected in publication PMC3529988.

Molecular target: E2F TD (Homo sapiens) (UniProt Q01094)
Chain of UniProt Q01094 (Q01094 368-437): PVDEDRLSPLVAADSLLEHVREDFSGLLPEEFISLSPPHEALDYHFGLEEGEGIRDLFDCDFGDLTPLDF

## Rb pocket (from UniProt P06400)
  Kd: 0.05 µM
